What is called Km is the concentration of substrate that gives half-maximal velocity.

Substrate in this series: C[N+](C)(C)CCO
As to the kind of experiment: SSM-based electrophysiology, peak currents, proteoliposomes. It counts as biochemical, Corynebacterium glutamicum. The note with it: 500 mM NaCl, 250 mM KPi pH 7.5, 22 °C.

B1: BetP (Corynebacterium glutamicum ATCC 13032; G153D) (protein)
chain: MTTSDPNPKPIVEDAQPEQITATEELAGLLENPTNLEGKLADAEEEIILEGEDTQASLNWSVIVPALVIVLATVVWGIGFKDSFTNFASSALSAVVDNLGWAFILFGTVFVFFIVVIAASKFGTIRLGRIDEAPEFRTVSWISMMFAAGMGIDLMFYGTTEPLTFYRNGVPGHDEHNVGVAMSTTMFHWTLHPWAIYAIVGLAIAYSTFRVGRKQLLSSAFVPLIGEKGAEGWLGKLIDILAIIATVFGTACSLGLGALQIGAGLSAANIIEDPSDWTIVGIVSVLTLAFIFSAISGVGKGIQYLSNANMVLAALLAIFVFVVGPTVSILNLLPGSIGNYLSNFFQMAGRTAMSADGTAGEWLGSWTIFYWAWWISWSPFVGMFLARISRGRSIREFILGVLLVPAGVSTVWFSIFGGTAIVFEQNGESIWGDGAAEEQLFGLLHALPGGQIMGIIAMILLGTFFITSADSASTVMGTMSQHGQLEANKWVTAAWGVATAAIGLTLLLSGGDNALSNLQNVTIVAATPFLFVVIGLMFALVKDLSNDVIYLEYREQQRFNARLARERRVHNEHRKRELAAKRRRERKASGAGKRR
With B1, the Km was 135 ± 28 µM.

The values are drawn from article PMC4745115.
